According to patent publication US6770458 (VANDERBILT UNIVERSITY, dated 2004):

Target: T1, SNF1 fused to the GAL4 DNA-binding domain (pAS2) (UniProt P04386 1-147; P06782 1-633, limits assumed)
T1 construct: Unrelated control protein in the yeast two-hybrid system
Test: yeast two-hybrid, β-galactosidase
Protocol: Cloning of STRAP. Northern blot and Southern blot analysis—Y190 containing pAS2-R4C was transformed with a pACT-mouse embryonic cDNA library, and transformants were subjected to selection for histidine prototrophy on SC-his, -trp, -leu plates containing 25 mM 3-aminotriazole (as described in Harper at al., *Cell* 75: 805–816 (1993) and Durfee et al., *Genes Dev.* 7:555–569 (1993)) and rare surviving colonies were then screened for β-galactosidase activity using a colony filter lift assay. Resulting clones, after second screening, were mated with Y187 containing the unrelated proteins p53, lamin, SNF1 and CDK2 fused to the GAL4 DNA-binding domain and tested for β-galactosidase activity. Positive clones were recovered from yeast and retransformed into Y190 with one of several unrelated molecules including lamin, SNF1, p53 or CDK2 in pAS2, for further testing of the specific interaction.
A color photograph was prepared showing STRAP or FKBP12.6 in pACT transformed into yeast strain Y190 containing R4C or one of several unrelated proteins including lamin. SNF1, p53 or CDK2 in pAS2. Transformants were tested for β-galactosidase activity by colony filter lift assay. A blue color indicated a positive interaction.

B1: STRAP (Serine-Threonine Kinase Receptors Associated Protein) in pACT (other)
chain: MAMRQTPLTCSGHTRPVVDLAFSGITPYGYFLISACKDGKPMLRQGDTGDWIGTFLGHKGAVWGATLNKDATKAATAAADFTAKVWDAVSGDELMTLAHKHIVKTVDFTQDSNYLLTGGQDKLLRIYDLNKPEAEPKEISGHTSGIKKALWCSDDKQILSADDKTVRLWDHATMTEVKSLNFNMSVSSMEYIPEGEILVITYGRSIAFHSAVSLEPIKSFEAPATINSASLHPEKEFLVAGGEDFKLYKYDYNSGEELESYKGHFGPIHCVRFSPDGELYASGSEDGTLRLWQTVVGKTYGLWKCVLPEEDSGELAKPKIGFPETAEEELAEEIASENSDSIYSSTPEVKA
notes: Yeast two-hybrid prey from a pACT mouse embryonic cDNA library (1.6 kb cDNA); also called STRAP clone; not shown: fusion partner encoded by the pACT library vector
B1: no binding.
